# Reference: patent publication US20250320312A1 (OXITOPE PHARMA B V, published 2025)
# Changes are numbered by the printed parent chain.
# T1: Peptide 4: Biotin-AGGGGSGGGGSGGGGSAAA-Tyr-acid (N-terminal biotin; C-terminal acid; no PC)
# T1 construct: control peptide without PC
# T1 peptide: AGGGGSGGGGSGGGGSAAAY
# T2: Peptide 8: Biotin-AEAAAKEAAAKEAAAKEAAAKAAA-Tyr-acid (N-terminal biotin; C-terminal acid)
# T2 construct: Control peptide without PC
# T2 peptide: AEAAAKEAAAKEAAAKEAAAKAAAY
# T3: Peptide 4: Biotin-AGGGGSGGGGSGGGGSAAA-Tyr-acid (N-terminal biotin; C-terminal acid)
# T3 construct: Control peptide without PC
# T3 peptide: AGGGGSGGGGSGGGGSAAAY
# T4: Peptide 8: Biotin-AEAAAKEAAAKEAAAKEAAAKAAA-Tyr-acid (N-terminal biotin; C-terminal acid; no PC)
# T4 construct: control peptide without PC
# T4 peptide: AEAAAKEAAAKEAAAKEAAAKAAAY
# B1: PcOxP_DB04_B06 (scFv, V domains shown)
# VH: EVQLLESGGGLVQPGGSLRLSCAASGFTFSDAYMEWVRQAPGKGLEWVAASRNKANDYTTEYADSVKGRFTISRDNSKNTLYLQMNSLRAEDTAVYYCARDYYGSSYWYFDVWGQGTLVTVSS
# VL: DIQMTQSPSSLSASVGDRVTITCTASESLYSSKHKVHYLAWYQQKPGKAPKLLIYGASNRYIGVPSRFSGSGSGTDFTLTISSLQPEDFATYYCAQFYDYPLTFGGGTKVEIK
# notes: scFv in periplasmic extract
# B2: PcOxP_DB04_A07 (scFv, V domains shown)
# VH: B1 VH with F29Q, A32F
# VL: B1 VL with A57I, D99S
# notes: scFv in periplasmic extract
# B3: PcOxP_DB03_G10 (scFv, V domains shown)
# VH: B1 VH
# VL: B1 VL with Y61Q, D99T
# notes: scFv in periplasmic extract
# B4: PcOxP_DB03_H07 (scFv, V domains shown)
# VH: B1 VH with A32Y
# VL: B1 VL with Y61D, A95G, D99S
# notes: scFv in periplasmic extract
# B5: PcOxP_DB03_H08 (scFv, V domains shown)
# VH: B1 VH with F27G, A32F, D57T
# VL: B1 VL with A57S, D99Q
# notes: scFv in periplasmic extract
# B6: PcOxP_DB03_H09 (scFv, V domains shown)
# VH: B1 VH with D57S
# VL: B1 VL with Q96E, D99S
# notes: scFv in periplasmic extract
# B7: PcOxP_DB04_C11 (scFv, V domains shown)
# VH: B1 VH with A32Y
# VL: DIVMTQSPDSLAVSLGERATINCTASESLYSSKHKVHYLAWYQQKPGQPPKLLIYGASHRQIGVPDRFSGSGSGTDFTLTISSLQAEDVAVYYCAQFYSYPLTFGGGTKVEIK
# notes: scFv in periplasmic extract
# B8: PcOxP_DB04_F03 (scFv, V domains shown)
# VH: B1 VH with F29A, A32F, N53W, Y102I
# VL: B7 VL with H59N, Q61Y
# notes: scFv in periplasmic extract
# B9: PcOxP_DB04_D09 (scFv, V domains shown)
# VH: B1 VH with F29D, A32F
# VL: B7 VL with T24K, A25S, H34N, H59N, Q61Y, I62S
# notes: scFv in periplasmic extract
# B10: PcOxP_DB04_E08 (scFv, V domains shown)
# VH: B1 VH with F29S, A32F, M34L, A55W
# VL: B7 VL with A57V, H59N, Q61Y
# notes: scFv in periplasmic extract
# B11: PcOxP_DB04_E06 (scFv, V domains shown)
# VH: B1 VH with F29G, A32F, S106P
# VL: B7 VL with H59N, Q61Y
# notes: scFv in periplasmic extract
# B12: PcOxP_DB04_D10 (scFv, V domains shown)
# VH: B1 VH with F29G, A32F, N53W
# VL: B7 VL with S32T, Q61Y, S99Q
# notes: scFv in periplasmic extract
# B13: PcOxP_DB04_D07 (scFv, V domains shown)
# VH: B1 VH with A32Y, N53W
# VL: B7 VL with H59N, Q61Y, S99T
# notes: scFv in periplasmic extract
# B14: PcOxP_DB04_G03 (scFv, V domains shown)
# VH: B1 VH with F29T, A32F, V112Y
# VL: B7 VL with H59N, Q61N, Q96H
# notes: scFv in periplasmic extract
# B15: PcOxP_DB04_F05 (scFv, V domains shown)
# VH: B1 VH with A32Y
# VL: B7 VL with K33N, A57V, H59N, Q61Y
# notes: scFv in periplasmic extract
# B16: PcOxP_DB04_E05 (scFv, V domains shown)
# VH: B1 VH with F27N, A32F, D57Y
# VL: B7 VL with H59N, Q61Y
# notes: scFv in periplasmic extract
# B17: PcOxP_DB04_D01 (scFv, V domains shown)
# VH: B1 VH with A32Y, A55G, E61A
# VL: B7 VL with H59Q, Q61Y
# notes: scFv in periplasmic extract
# B18: PcOxP_DB04_D12 (scFv, V domains shown)
# VH: B1 VH with A32Q, Y58W
# VL: B7 VL with H59N, Q61Y
# notes: scFv in periplasmic extract
# B19: PcOxP_DB04_G08 (scFv, V domains shown)
# VH: B1 VH with F29G, A32F
# VL: B7 VL with H59N, Q61Y, I62Q, S99W
# notes: scFv in periplasmic extract
# B20: PcOxP_DB04_E12 (scFv, V domains shown)
# VH: B1 VH with A32F
# VL: B7 VL with H59N, Q61V, S99I
# notes: scFv in periplasmic extract
# B21: PcOxP_DB04_F01 (scFv, V domains shown)
# VH: B1 VH with D31P, A32F
# VL: B7 VL with H59N, Q61Y, S99E
# notes: scFv in periplasmic extract
# B22: PcOxP_DB04_G01 (scFv, V domains shown)
# VH: B1 VH with A32Y, A55W, G104L
# VL: B7 VL with T24K, E27Q, L29V, Y30L, H34N, K35N, H37N, H59N, Q61Y, S99Q
# notes: scFv in periplasmic extract
# B23: PcOxP_DB04_G09 (scFv, V domains shown)
# VH: B1 VH with F27N, A32F, A55W
# VL: B7 VL with H59N, Q61Y
# notes: scFv in periplasmic extract
# B24: PcOxP_DB04_D05 (scFv, V domains shown)
# VH: B1 VH with A32Y, K54V
# VL: B7 VL with E27T, H59N, Q61Y
# notes: scFv in periplasmic extract
# Biological target: T1, Peptide 4: …
# Assay: scFv ELISA
# Procedure, shortened: (§1)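 Bound scFv was read as OD450 after HRP–anti-V5 detection, TMB development and HCl stop. PPE with BSA was incubated 1 h at RT on BSA-blocked wells coated overnight at 4° C. with peptide, or on streptavidin wells loaded 1 h with biotinylated PC-peptides at 1 μg/mL.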
row,Binder,OD450 [OD450]
1,B1,0.06
2,B2,0.05
3,B3,0.05
4,B4,0.05
5,B5,0.06
6,B6,0.06

# Biological target: T2, Peptide 8: …
# Assay: scFv ELISA
# Procedure, shortened: as §1
row,Binder,OD450 [OD450]
1,B7,0.04
2,B8,0.05
3,B9,0.08
4,B10,0.05
5,B11,0.05
6,B12,0.05
7,B13,0.05
8,B14,0.05
9,B15,0.05
10,B16,0.05
11,B17,0.06
12,B18,0.05
13,B19,0.05
14,B20,0.05
15,B21,0.07
16,B22,0.09
17,B23,0.06
18,B24,0.06

# Biological target: T3, Peptide 4: …
# Assay: scFv ELISA
# Procedure, shortened: as §1
row,Binder,OD450 [OD450]
1,B7,0.05
2,B8,0.06
3,B9,0.05
4,B10,0.06
5,B11,0.04
6,B12,0.05
7,B13,0.05
8,B14,0.04
9,B15,0.06
10,B16,0.06
11,B17,0.06
12,B18,0.06
13,B19,0.05
14,B20,0.05
15,B21,0.07
16,B22,0.07
17,B23,0.05
18,B24,0.05

# Biological target: T4, Peptide 8: …
# Assay: scFv ELISA
# Procedure, shortened: as §1
row,Binder,OD450 [OD450]
1,B1,0.06
2,B2,0.05
3,B3,0.05
4,B4,0.05
5,B5,0.06
6,B6,0.06

# Biological target: Peptide 1: Biotin-…-[Tyr(PC)]-acid
# Assay: scFv ELISA
row,Binder,OD450 [OD450]
1,B7,0.81
2,B1,0.66
3,B8,0.58
4,B2,1.54
5,B9,0.41
6,B10,1.39
7,B11,1.04
8,B12,1.14
9,B13,1.02
10,B14,0.19
11,B3,1.8
12,B4,1.91
13,B15,0.76
14,B16,0.67
15,B17,1.23
16,B18,0.64
17,B19,1.39
18,B20,1.03
19,B21,0.56
20,B22,0.63
21,B5,0.91
22,B23,0.48
23,B24,0.87
24,B6,0.93

# Biological target: Peptide 5: Biotin-…-[Tyr(PC)]-acid
# Assay: scFv ELISA
row,Binder,OD450 [OD450]
1,B7,1.34
2,B1,1.06
3,B8,0.87
4,B2,2.11
5,B9,0.83
6,B10,2.01
7,B11,1.59
8,B12,1.35
9,B13,1.05
10,B14,0.4
11,B3,1.21
12,B4,1.64
13,B15,0.97
14,B16,1.03
15,B17,1.66
16,B18,1.03
17,B19,1.67
18,B20,1.39
19,B21,0.85
20,B22,1.39
21,B5,1.18
22,B23,1.08
23,B24,1.27
24,B6,1.25

# Biological target: BSA (UniProt P02769)
# Assay: scFv ELISA
# Sequence of BSA (P02769 25-607 limits assumed): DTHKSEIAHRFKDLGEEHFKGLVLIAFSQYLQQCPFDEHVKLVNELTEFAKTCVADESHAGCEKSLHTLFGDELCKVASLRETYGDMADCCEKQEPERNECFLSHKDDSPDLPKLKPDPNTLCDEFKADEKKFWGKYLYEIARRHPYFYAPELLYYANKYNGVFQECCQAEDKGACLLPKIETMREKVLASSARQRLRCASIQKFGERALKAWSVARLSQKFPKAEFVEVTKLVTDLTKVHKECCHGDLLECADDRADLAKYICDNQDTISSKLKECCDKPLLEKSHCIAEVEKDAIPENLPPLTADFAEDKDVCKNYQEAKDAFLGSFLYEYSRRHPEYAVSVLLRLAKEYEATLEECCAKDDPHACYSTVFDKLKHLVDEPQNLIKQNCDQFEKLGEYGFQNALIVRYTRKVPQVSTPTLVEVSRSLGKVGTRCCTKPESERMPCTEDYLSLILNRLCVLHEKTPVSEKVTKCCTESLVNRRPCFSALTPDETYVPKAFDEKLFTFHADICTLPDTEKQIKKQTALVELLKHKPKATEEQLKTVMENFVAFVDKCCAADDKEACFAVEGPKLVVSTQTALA
row,Binder,OD450 [OD450]
1,B7,0.07
2,B1,0.1
3,B8,0.1
4,B2,0.09
5,B9,0.06
6,B10,0.09
7,B11,0.07
8,B12,0.07
9,B13,0.08
10,B14,0.07
11,B3,0.11
12,B4,0.08
13,B15,0.07
14,B16,0.09
15,B17,0.07
16,B18,0.08
17,B19,0.07
18,B20,0.07
19,B21,0.09
20,B22,0.09
21,B5,0.12
22,B23,0.08
23,B24,0.08
24,B6,0.11
